B1: ATA_Gua_4: SEQ ID NO: 4; xpt-guanine aptamer linked to 14 bp stem-loop embedding AATAAA; also used in pEGFP vector (nucleic acid)
DNA: AAGGCCAAGAAGGGCGGAAAGATCGCCGTGTAAGCCATACCACATTTGTAGAGGTTTTACTTGCTTTAAAAAACCTCCCACACCTCCCCCTGAACCTGAAACATAAAATGAATGCAATTGTTGTTGTTAACTTGTTTATTGCAGCTTATAATGGTTACAAATAAAGCAATAGCATCACAAATTTTAAAGCAATAATCGCGTGGATATGGCACGCAAGTTTCTACCGGGCACCGTAAATGTCCGACTTGCTTTATTTGTGCGAAAGCACAAATAAAGCATTTTTTTCACTGCATTCTAGTTGTGGTTTGTCCAAACTCATCAATGTATCTTAACGCGT
B2: ATA_Gua_2: SEQ ID NO: 2; xpt-guanine aptamer linked to 10 bp stem-loop embedding AATAAA; also used in pEGFP vector (nucleic acid)
DNA: AAGGCCAAGAAGGGCGGAAAGATCGCCGTGTAAGCCATACCACATTTGTAGAGGTTTTACTTGCTTTAAAAAACCTCCCACACCTCCCCCTGAACCTGAAACATAAAATGAATGCAATTGTTGTTGTTAACTTGTTTATTGCAGCTTATAATGGTTACAAATAAAGCAATAGCATCACAAATTTCACATAAAGCATAATCGCGTGGATATGGCACGCAAGTTTCTACCGGGCACCGTAAATGTCCGACTGCTTTATTTCGAAAGAAATAAAGCATTTTTTTCACTGCATTCTAGTTGTGGTTTGTCCAAACTCATCAATGTATCTTAACGCGT
B3: ATA_Ydhl: SEQ ID NO: 17; adenine aptamer ydhl-A linked to 9 bp TTCG stem-loop embedding AATAAA, P1 stem 10 bp (nucleic acid)
DNA: AAGGCCAAGAAGGGCGGAAAGATCGCCGTGTAAGCCATACCACATTTGTAGAGGTTTTACTTGCTTTAAAAAACCTCCCACACCTCCCCCTGAACCTGAAACATAAAATGAATGCAATTGTTGTTGTTAACTTGTTTATTGCAGCTTATAATGGTTACAAATAAAGCAATAGCATCACAAATTTCAATAAAGGTATAACCTCAATAATATGGTTTGAGGGTGTCTACCAGGAACCGTAAAATCCTGATTACCTTTATTTCTTCGGAAATAAAGCATTTTTTTCACTGCATTCTAGTTGTGGTTTGTCCAAACTCATCAATGTATCTTAACGCGT

Key:
Type in all cases: cell-based
EGFP expression = test: GFP fluorescence of HEK 293 cells transfected with pEGFP riboswitch constructs, treated with guanine; details: 500 μM guanine vs NaOH solvent control
Experimental: (§1) Transfection and aptamer ligand treatment: 3.5×10^4 HEK 293 cells were plated in a 96-well flat bottom plate the day before transfection. Plasmid DNA (500 ng) was added to a tube or a 96-well U-bottom plate. Separately, TransIT-293 reagent (Minis; 1.4 μl) was added to 50 μl opti-mem I media (Life Technologies), and allowed to sit for 5 minutes at room temperature (“RT”). Then, 50 μl of this diluted transfection reagent was added to the DNA, mixed, and incubated at RT for 20 min. Finally, 7 μl of this solution was added to a well of cells in a 96-well plate. Four hours after transfection, the media was aspirated, and new media was added with (i) DMSO (0.5%) or 500 μM guanosine; or (ii) NaOH (2 mM) as solvent control or 500 μM guanine. The induction fold was expressed as the quotient of luciferase activity obtained in the presence of aptamer ligand divided by the value obtained in the absence of the aptamer ligand.
Transfection and measurement of GFP fluorescence: 3.5×10^4 HEK 293 cells were plated in 96-well flat bottom plate the day before transfection. […] GFP fluorescence intensity was measured by Tecan plate reader, using Excitation wavelength at 484 nm, Emission wavelength at 510 nm and Excitation bandwidth at 5 nm. The GFP fluorescence intensity was expressed as the value generated by GFP constructs subtracted by the value generated by cells without transfection.

luciferase expression [1] = test: Firefly luciferase assay of HEK 293 cells transfected with riboswitch constructs, treated with guanosine or guanine; details: absence of guanine treatment
Experimental: as §1
(§2) Firefly luciferase assay of cultured cells: Twenty-four hours after media change, plates were removed from the incubator, and equilibrated to RT for several minutes on a lab bench, then aspirated. Glo-lysis buffer (Promega, […]) was added, and the plates allowed to remain at RT for at least 5 minutes. Then, the well contents were mixed by 50 μL trituration, and 20 μL of each sample was mixed with 20 μL of bright-glo reagent (Promega) that had been diluted to 10% in glo-lysis buffer. 96 wells were spaced on an opaque white 384-well plate. Following a 5-min incubation at RT, luminescence was measured using Tecan machine with 500 mSec read time. The luciferase activity was expressed as mean relative light unit (RLU)±S.D.

luciferase expression [2] = test: Firefly luciferase assay of HEK 293 cells transfected with adenine aptamer construct, treated with adenine
Experimental: as §1, §2
Four hours after transfection, the media was aspirated, and new media with NaOH (1 mM) or 1 mM adenine (Calbiochem) was added. The induction fold was expressed as the quotient of luciferase activity obtained in the presence of aptamer ligand divided by the value obtained in the absence of the aptamer ligand.

Molecule | fold increase in GFP expression on guanine treatment (EGFP expression) | basal level luciferase expression, % of the pFLuc control vector (luciferase expression [1]) | luciferase expression in the presence of adenine, % of the control pFLuc construct in the presence of adenine (luciferase expression [2]; 1 mM adenine) | fold increase in luciferase expression on adenine treatment (luciferase expression [2]; 1 mM adenine vs NaOH solvent control) | luciferase level in the absence of adenine, % of the control pFLuc construct (luciferase expression [2]; absence of adenine treatment)
B1 | 1.6 fold | 16% | – | – | –
B2 | 1.5 fold | – | – | – | –
B3 | – | – | approximately 82% | 4.0 fold | approximately 52%

From patent US20200010836A1, “Regulation of Gene Expression by Aptamer-Mediated Accessibility of Polyadenylation Signals” (MEIRAGTX, UK II Limited, priority 2017, published 2020)
